This data set can be described thus: soluble on expression in E. coli; label from the status in PepcDB or PDB records.
For “MSERAYNFNAGPAALPLEVLERAQAEFVDYQHTGMSIMEMSHRGAVYEAVHNEAQARLLALLGNPTGYKVLFIQGGASTQFAMIPMNFLKEGQTANYVMTGSWASKALKEAKLIGDTHVAASSEASNYMTLPKLQEIQLQDNAAYLHLTSNETIEGAQFKAFPDTGSVPLIGDMSSDILSRPFDLNQFGLVYAGAQKNLGPSGVTVVIVREDLVAESPKHLPTMLRYDTYVKNNSLYNTPPSFGIYMVNEVLKWIEERGGLEGVQQANRKKASLIYDAIDQSGGFYRGCVDVDSRSDMNITFRLASEELEKEFVKASEQEGFVGLKGHRSVGGLRASIYNAVPYESCEALVQFMEHFKRSRG”, the “soluble on expression in E. coli” value is recorded as “soluble”. The entry for “SISPAQIAEALQGRGWDAEIVTDASMAGQLVDVRPEGILKCVDGRGSDNTRMGGPKMPGGIYAIAHNRGVTSIEGLKQITKEVASKGHLPSVHGDHSSDMLGCGFFKLWVTGRFDDMGYPRPQFDADQGANAVKDAGGIIEMHHGSHTEKVVYINLLANKTLEPNENDQRFIVDGWAADKFGLDVPKFLIAAAATVEMLGGPKNAKIVVP” is “soluble”; for “MKKALLYRRGGLGDTLLTFPILEILKRRGYETIAVGNTDYFSIAKEVGYADGVYSFIPEEEFDLKVIISFEGNVKPFPEKREWIVKHYLNSLGLGEEFSTKLPIKPVQDSPLKGKVVIHPSSGSKKKNPPLEVFLKLKDFLEERGKEVVFLLGEAEEHLREVLSPHFLSLSPLEIAKHLKTAGFYVGLDSGISHLASYLGVPSFIVYGPTDPLVWRPIGDKVFQISLNLDCSPCFPNVCEERMCLDTEEVLRKTKETLLRYWNSL” it is “not soluble”. The entry for “MGSDKIHHHHHHMARKKRNPDAEKLAESILNAYQPESVDDMQDALKDVFGPLFEKMLQGELNNHLGYDAHSKEPKEHDNRRNGYGTKTLKTSFGEVAIDVPRDREASFEPELIPKRKRDVSDIEGKVLSMYARGMSQRDIAATVEAIYGFDISHEMISDITDAVLPELEEWQARPLAKCYAFLFVDCMYVTLRENYEAKEYAVYTILGYDLKGNKEILGLWLNQTESKNRWMQVFDELKARGVEDVFFISMDGVSGLEEGAKAIFPSVIVQRCIVHLVRNALRYIPSKDYKEVCRDMKKFYGASSLNAAHAAFGSFQNRWSHYSGAVDVWKRNFAHVEQLFDYGSAIRKIMYTTNAVESVHSSFRKVTKKGAFSNENALLKLLYLRTKELHAKWSGGRIQNWAMVLKQLMINETFSSRMKSMRFTFRNNGRFIQLCVRSKFI” is “not soluble”. For “MEKIIITATAESIEQVKALLAAGVDRIYVGEANYGLRLPHNFSYDELRQIAKLVHDAGKELTVACNALMHQDMMDQIKPFLDLMIEIAVDYLVVGDAGVFYVNKRDGYNFKLIYDTSVFVTSSRQVNFWGQHGAVESVLAREIPSAELFTLAENLEFPAEVLVYGASVIHHSKRPLLENYYHFTKIDDEVSRERGLFLAEPGDASSHYSIYEDNHGTHIFINNDIDMMSKLGELYAHGLTHWKLDGIYCPGDDFVAITKLFIQAKTLLEAGQFTQEEAEKLDQAVHAHHPAGRGLDTGFYEFDPKTVK” the value was “not soluble”; for “MGSDKIHHHHHHMSLSRIHGDDDAFGARLDFAVNVAEAQPPTWLIQRLQSAVTDLAAYPHSSDLAAVTAMIARYHGVSEDHVLVLSGVSEGFAMLPQLKPENAVIIHPGFSEPDIVLTDAQIPVHRCILAPPFELSFENIPANADLVVIGNPTNPTGVVHSKELLAQLCAPGRTVVIDEAFLDIVGEQYSMIDQLDAVEGELIIFRSLTKTWSIAGLRVGYAIARPETLARLSAYRRHWPMGTLQLRAIEAVFDTGIMQLPERRAEMIAQRTEMIEMLTNSGFRCVSSSQAPYILVRPPSTQPEELRMALKAQGIAVRRCDTFPGLEFSYWRLAVRPRDQVQRLLTAIDNIIGAKK”, “not soluble”; for “MAHHHHHHMSSCQNTHAARLHSATSAYAGEPESWMWTPARENGDGWRSPGTGTATSATAEAALHFVWGRVLSVYAVMPLNQTWNVQGVVDAVLPPLPANGGTTAAPSPPAAPAMAPGFQLLVMAAALLSPPATATTAVAAAPSMASLHKLSLMSPADAEPVDVGELSGAFWLAALRRAWPLFQACGVSHEPMTQGSNTNITEEAASSLGGVAVGMAGSGVNLEDLRTIVLSLFLRFADDSAVASAMAAADGDGAKLCGSAIRWAEAMCSDAPATYAQ”, “not soluble”.

Source of the values: the DeepSol protein solubility set.
